# Results reported in FireProtDB (doi:10.1016/s0014-5793(99)01395-2).
# B1: Endolysin, P03706 (parent)
# chain: MVEINNQRKAFLDMLAWSEGTDNGRQKTRNHGYDVIVGGELFTDYSDHPRKLVTLNPKLKSTGAGRYQLLSRWWDAYRKQLGLKDFSPKSQDAVALQQIKERGALPMIDRGDIRQAIDRCSNIWASLPGAGYGQFEHKADSLIAKFKEAGGTVREIDV
# Variants of: B1
# Conditions: Escherichia phage lambda, pH 7, Thermal, Fluorescence, phosphate buffer 100 mM, reversible: yes, structure 1AM7, whole UniProt chain shown; for ddG of mutation (higher = less stable) / unfolding free energy: 25 °C
Variant,ddG of mutation (higher = less stable) [kJ/mol],unfolding free energy [kJ/mol],Tm [°C],"change of melting temperature, mutant - wild type (higher = more stable) [°C]",unfolding enthalpy (van 't Hoff) [kJ/mol]
H31N H137N,-7.53,37.2,,,
H31D,6.69,23,46.1,-6.2,418
H48N,20.9,8.79,30.1,-22.2,254
